Measured values published in patent publication US20230250190A1 (published 2023).

T1: T3 (Tn-MUC1) (PAPGST(α-GalNAc)APPAHGVTSAPDTRPAPG-OH)
T1 peptide: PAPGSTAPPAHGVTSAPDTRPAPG

T2: T4 (Tn-MUC1) (PAPGSTAPPAHGVT(α-GalNAc)SAPDTRPAPG-OH)
T2 peptide: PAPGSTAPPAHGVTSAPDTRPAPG

T3: T9 (Tn-MUC1) (PAPGSTAPPAHGVT(α-GalNAc)S(α-GalNAc)APDTRPAPG-OH)
T3 peptide: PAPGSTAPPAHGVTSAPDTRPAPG

T4: T11 (Tn-MUC1) (PAPGSTAPPAHGVT(α-GalNAc)SAPDT(α-GalNAc)RPAPG-OH)
T4 peptide: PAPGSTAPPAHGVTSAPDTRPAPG

T5: T8 (Tn-MUC1) (PAPGST(α-GalNAc)APPAHGVTSAPDT(α-GalNAc)RPAPG-OH)
T5 peptide: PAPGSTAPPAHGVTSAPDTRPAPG

T6: S11 (sTn-MUC1) (PAPGSTAPPAHGVT(Neu5Ac-α(2-6)-GalNAc)SAPDT(Neu5Ac-a(2-6)-GalNAc)RPAPG-OH)
T6 peptide: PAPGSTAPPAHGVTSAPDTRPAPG

T7: S9 (sTn-MUC1) (PAPGSTAPPAHGVT(Neu5Ac-α(2-6)-GalNAc)S(Neu5Ac-a(2-6)-GalNAc)APDTRPAPG-OH)
T7 peptide: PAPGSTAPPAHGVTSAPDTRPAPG

T8: S4 (sTn-MUC1) (PAPGSTAPPAHGVT(Neu5Ac-α(2-6)-GalNAc)SAPDTRPAPG-OH)
T8 peptide: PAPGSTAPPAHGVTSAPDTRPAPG

T9: T7 (Tn-MUC1) (PAPGS(α-GalNAc)T(α-GalNAc)APPAHGVTSAPDTRPAPG-OH)
T9 peptide: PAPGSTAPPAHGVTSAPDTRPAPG

B1: 25 (antibody, V domains shown)
VH: QVQLVESGAEVKKPGASVKVSCKASGYTFARYYVHWVRQAPGQGLEWMGLINPYGGATNYAQNFQGRVTMTRDTSTSTVYMELSSLRSEDTAVYYCARDAMGGDSYFDYWGQGTLVTVSS
B2: 90 (antibody, V domains shown)
VH: QVQLVQSGAEVKKPGASVKVSCKASGYTFINHYIHWVRQAPGQGLEWMGVINPFDGSTNYAQKFQGRVTVTRDTSTSTVFLDLSSLRSEDTAVYYCARDNMIGYVLFDYWGQGTLVTVSS
B3: SEQ ID NO 57 (bivalent monospecific MUC1 IgG) (antibody, V domains shown)
VH: QVQLVESGTEVKKPGASVKVSCKASGYSFIHYYIHWVRQAPGRGLEWMGVINPFDGSTNYAQNFQGRVTVTRDTSTSTVFMDLSSLRSEDTAVYYCARDNMIGYVLFDHWGQGTLVTVSS
VL: not shown
B4: SEQ ID NO 78 (bivalent monospecific MUC1 IgG) (antibody, V domains shown)
VH: QVQLVQSGAEVKKPGTSVKVSCKASGYSFIHYYIHWVRQAPGQGLEWVGVINPFDGSTNYAQKFQGRVTVTRDTSTSAVFMDLSSLRSEDTAVYYCARDNMIGYVLFDYWGQGTLVTVSS
VL: not shown
B5: SEQ ID NO 9 (bivalent monospecific MUC1 IgG) (antibody, V domains shown)
VH: QVQLVQSGAEVKKPGASVKVSCKASGYTFNRHYIQWVRQAPGQGLEWMGTINPYDGSTHYAQKFQGRVTLTRDTSTTTVYMELSSLRSEDTAVYYCARDYMIGYVVFDYWGQGTLVTVSS
VL: not shown
B6: SEQ ID NO 5 (bivalent monospecific MUC1 IgG) (antibody, V domains shown)
VH: QVQLVQSGAEVKKPGASVKVSCKTSGYTFTRYYIQWVRQAPGQGLEWMGVINPYDGSTNYAQKFQGRVTVTRDTSTFTVYMELSSLRSEDTAVYYCARDYMRGYVIFDYWGQGTLVTVSS
VL: not shown
B7: 106 (antibody, V domains shown)
VH: QVQLVQSGAEMKKPGASVKISCKASGYTFTNYYIQWVRQAPGQGLEWMGVINPYDGSTNYAQRFQGRVTLTRDTSTTTVYMELSSLRSEDTAVYYCARDYMIGYVVFDFWGQGTLVTVSS
B8: SEQ ID NO 45 (bivalent monospecific MUC1 IgG) (antibody, V domains shown)
VH: QVQLVESGTEVKKPGASVKVSCKASGYSFIHYYIHWVRQAPGRGLEWMGVINPFDGSTNSAQNFQGRVTVTRDTSTSTVFMDLSSLRSEDTAVYYCARDNMLGYVLFDHWGQGTLVTVSS
VL: not shown

Legend:
Assay in all cases: glycopeptide array
T3 (Tn-MUC1) = molecular target: T1, T3 (Tn-MUC1)
T4 (Tn-MUC1) = molecular target: T2, T4 (Tn-MUC1)
T9 (Tn-MUC1) = molecular target: T3, T9 (Tn-MUC1)
T11 (Tn-MUC1) = molecular target: T4, T11 (Tn-MUC1)
T8 (Tn-MUC1) = molecular target: T5, T8 (Tn-MUC1)
S11 (sTn-MUC1) = molecular target: T6, S11 (sTn-MUC1)
S9 (sTn-MUC1) = molecular target: T7, S9 (sTn-MUC1)
S4 (sTn-MUC1) = molecular target: T8, S4 (sTn-MUC1)
T7 (Tn-MUC1) = molecular target: T9, T7 (Tn-MUC1)

Binder	EC50 (T3 (Tn-MUC1))	EC50 (T4 (Tn-MUC1))	EC50 (T9 (Tn-MUC1))	EC50 (T11 (Tn-MUC1))	EC50 (T8 (Tn-MUC1))	EC50 (S11 (sTn-MUC1))	EC50 (S9 (sTn-MUC1))	EC50 (S4 (sTn-MUC1))	EC50 (T7 (Tn-MUC1))
B1	38.6 µg/mL	0.1 µg/mL	0.119 µg/mL	0.129 µg/mL	0.113 µg/mL	–	–	–	–
B2	–	0.118 µg/mL	0.102 µg/mL	0.126 µg/mL	0.12 µg/mL	67.4 µg/mL	0.207 µg/mL	0.126 µg/mL	–
B3	–	0.112 µg/mL	0.109 µg/mL	0.123 µg/mL	0.114 µg/mL	0.939 µg/mL	0.16 µg/mL	0.119 µg/mL	–
B4	37.9 µg/mL	0.034 µg/mL	0.032 µg/mL	0.041 µg/mL	0.032 µg/mL	0.477 µg/mL	0.067 µg/mL	0.039 µg/mL	–
B5	21.6 µg/mL	0.031 µg/mL	0.039 µg/mL	0.041 µg/mL	0.034 µg/mL	0.053 µg/mL	0.046 µg/mL	0.031 µg/mL	64 µg/mL
B6	–	0.116 µg/mL	0.113 µg/mL	0.127 µg/mL	0.123 µg/mL	0.296 µg/mL	0.137 µg/mL	0.12 µg/mL	–
B7	99.3 µg/mL	0.037 µg/mL	0.032 µg/mL	0.043 µg/mL	0.036 µg/mL	–	–	–	–
B8	52.2 µg/mL	0.084 µg/mL	0.083 µg/mL	0.093 µg/mL	0.088 µg/mL	4.06 µg/mL	0.135 µg/mL	0.089 µg/mL	–
